# Assay results as given in PMC4711005, “LRRK2 phosphorylates pre-synaptic N-ethylmaleimide sensitive fusion (NSF) protein enhancing its ATPase activity and SNARE complex disassembling rate” (Molecular Neurodegeneration, 2016).
# Changes are numbered by the printed parent chain. Numbers in names are those of the source.
# B1: Flag-NSF full-length (human, aa 1-744) (enzyme, UniProt P46459 1-744, looked up)
# chain: MAGRSMQAARCPTDELSLTNCAVVNEKDFQSGQHVIVRTSPNHRYTFTLKTHPSVVPGSIAFSLPQRKWAGLSIGQEIEVSLYTFDKAKQCIGTMTIEIDFLQKKSIDSNPYDTDKMAAEFIQQFNNQAFSVGQQLVFSFNEKLFGLLVKDIEAMDPSILKGEPATGKRQKIEVGLVVGNSQVAFEKAENSSLNLIGKAKTKENRQSIINPDWNFEKMGIGGLDKEFSDIFRRAFASRVFPPEIVEQMGCKHVKGILLYGPPGCGKTLLARQIGKMLNAREPKVVNGPEILNKYVGESEANIRKLFADAEEEQRRLGANSGLHIIIFDEIDAICKQRGSMAGSTGVHDTVVNQLLSKIDGVEQLNNILVIGMTNRPDLIDEALLRPGRLEVKMEIGLPDEKGRLQILHIHTARMRGHQLLSADVDIKELAVETKNFSGAELEGLVRAAQSTAMNRHIKASTKVEVDMEKAESLQVTRGDFLASLENDIKPAFGTNQEDYASYIMNGIIKWGDPVTRVLDDGELLVQQTKNSDRTPLVSVLLEGPPHSGKTALAAKIAEESNFPFIKICSPDKMIGFSETAKCQAMKKIFDDAYKSQLSCVVVDDIERLLDYVPIGPRFSNLVLQALLVLLKKAPPQGRKLLIIGTTSRKDVLQEMEMLNAFSTTIHVPNIATGEQLLEALELLGNFKDKERTTIAQQVKGKKVWIGIKKLLMLIEMSLQMDPEYRVRKFLALLREEGASPLDFD
# notes: N-ethylmaleimide sensitive fusion protein (NSF), human, full-length, aa 1-744; Cloned into the p3XFLAG-CMV-7.1 vector; also called 3xFlag-NSF wt; NSF wild-type; source: kept on the resin or eluted with 3xFlag peptide; also in HEK293T lysate; not shown: Flag, N-terminal, kept
# B2: NSF T645A (enzyme, human, UniProt P46459 1-744, looked up)
# chain: B1 chain with T645A
# notes: NSF, human, phospho-deficient mutant T645A of the NSF wild-type construct (full-length aa 1-744), made by QuickChange mutagenesis; source: HEK293T, expressed and purified
# Biological target: the molecule itself
# Experiment: negative-stain transmission electron microscopy; purified NSF incubated with 1 mM ATP and 2 mM MgCl2, adsorbed to carbon-coated grids, stained with 1 % uranyl acetate
row,Protein,stoichiometry N
1,B1,6
2,B2,6
